Experimental data taken from paper doi:10.1101/2023.10.26.564249.

Molecular target: His6-RpoS (sigma S) (Salmonella enterica serovar Typhimurium 14028s) (UniProt D0ZVL4)
Assay: EMSA
Conditions: LightShift chemiluminescent EMSA kit, 20 uL: 1 ng biotin-DNA, 2 uL binding buffer, 1 ug poly(dI.dC), 1 uL 50% glycerol, 1 uL 1 M KCl (about 50 mM added)

Sequence of His6-RpoS (sigma S) (Salmonella enterica serovar Typhimurium 14028s) (D0ZVL4 whole entry): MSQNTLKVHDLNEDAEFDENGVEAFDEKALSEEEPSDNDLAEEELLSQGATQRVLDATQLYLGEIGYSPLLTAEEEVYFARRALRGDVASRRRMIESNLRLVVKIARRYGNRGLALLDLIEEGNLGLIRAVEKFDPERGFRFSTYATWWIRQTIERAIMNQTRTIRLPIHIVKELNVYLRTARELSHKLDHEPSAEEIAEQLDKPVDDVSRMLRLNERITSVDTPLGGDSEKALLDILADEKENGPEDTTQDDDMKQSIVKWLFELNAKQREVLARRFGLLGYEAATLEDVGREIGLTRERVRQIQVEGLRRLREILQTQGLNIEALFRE

Sequence	binding
ACTCGTATGTTTATCATGCAACCTATAAATAAATGTTATATTCAATAACTAATATTACATCTCAAATTCTCTCAAGTATGTCATAACGCTGCAGCAAATAAAAGTCAGTCAGC (double strand) [waaZ promoter]	binds
ACTTCCCCGAGCTTAAAAATGACCCAAACGGGTGTACCGATCTTAGTCTGCTGGCTGGCGCTGTAGCAAAGTTTAATGTCATCGGTAACCGGCTGGATTTAGCGATCCCTCAAATCGCG (double strand) [sthC promoter]	binds
